This note sets out measurements from article PMC9731866, “Structures of a constitutively active mutant of human IDH3 reveal new insights into the mechanisms of allosteric activation and the catalytic reaction” (The Journal of Biological Chemistry, 2022).

Substrate in series [1]: O=C(O)C[C@H](C(=O)O)[C@@H](O)C(=O)O
Briefly: NADH production, Hill fit. The series is classed as biochemical, Homo sapiens. The settings on record: no activators, 3.2 mM NAD, 2 mM MgCl2, 33 mM Tris-acetate pH 7.4. An excerpt: NADH production, Hill fit on αβ heterodimer of HsIDH3 (mutant form αMβ)

Substrate in series [2]: O=C(O)C[C@H](C(=O)O)[C@@H](O)C(=O)O
Briefly: NADH production, Hill fit. The format is biochemical, Homo sapiens. Particulars: no activators, 3.2 mM NAD, 2 mM MgCl2, 33 mM Tris-acetate pH 7.4. An excerpt: NADH production, Hill fit on αγ heterodimer of HsIDH3 (mutant form αMγ)
The source holds these as a separate data set.

B1: αβ heterodimer of HsIDH3 (mutant form αMβ) (Homo sapiens; P50213:Q166A) (protein)
chain 1: TGGVQTVTLIPGDGIGPEISAAVMKIFDAAKAPIQWEERNVTAIQGPGGKWMIPSEAKESMDKNKMGLKGPLKTPIAAGHPSMNLLLRKTFDLYANVRPCVSIEGYKTPYTDVNIVTIRENTEGEYSGIEHVIVDGVVASIKLITEGASKRIAEFAFEYARNNHRSNVTAVHKANIMRMSDGLFLQKCREVAESCKDIKFNEMYLDTVCLNMVQDPSQFDVLVMPNLYGDILSDLCAGLIGGLGVTPSGNIGANGVAIFESVHGTAPDIAGKDMANPTALLLSAVMMLRHMGLFDHAARIEAACFATIKDGKSLTKDLGGNAKCSDFTEEICRRVKDLD
chain 2: not shown
notes: coexpressed alpha and beta-TEV-His6 (pQlinkN), E. coli BL21(DE3) Codon-Plus, His6 tag cleaved with TEV; 1:1 heterodimer, mutant is heterotetramer (αMβ)2 of 131-149 kDa
For B1, in series [1], the K0.5 turned out to be 0.17 ± 0.02 mM and the Vmax – broadly, the rate approached at saturating substrate – worked out at 18 µmol/min/mg.

B2: αγ heterodimer of HsIDH3 (mutant form αMγ) (Homo sapiens; P50213:Q166A) (protein)
chain 1: TGGVQTVTLIPGDGIGPEISAAVMKIFDAAKAPIQWEERNVTAIQGPGGKWMIPSEAKESMDKNKMGLKGPLKTPIAAGHPSMNLLLRKTFDLYANVRPCVSIEGYKTPYTDVNIVTIRENTEGEYSGIEHVIVDGVVASIKLITEGASKRIAEFAFEYARNNHRSNVTAVHKANIMRMSDGLFLQKCREVAESCKDIKFNEMYLDTVCLNMVQDPSQFDVLVMPNLYGDILSDLCAGLIGGLGVTPSGNIGANGVAIFESVHGTAPDIAGKDMANPTALLLSAVMMLRHMGLFDHAARIEAACFATIKDGKSLTKDLGGNAKCSDFTEEICRRVKDLD
chain 2: FSEQTIPPSAKYGGRHTVTMIPGDGIGPELMLHVKSVFRHACVPVDFEEVHVSSNADEEDIRNAIMAIRRNRVALKGNIETNHNLPPSHKSRNNILRTSLDLYANVIHCKSLPGVVTRHKDIDILIVRENTEGEYSSLEHESVAGVVESLKIITKAKSLRIAEYAFKLAQESGRKKVTAVHKANIMKLGDGLFLQCCREVAARYPQITFENMIVDNTTMQLVSRPQQFDVMVMPNLYGNIVNNVCAGLVGGPGLVAGANYGHVYAVFETATRNTGKSIANKNIANPTATLLASCMMLDHLKLHSYATSIRKAVLASMDNENMHTPDIGGQGTTSEAIQDVIRHIRVINGRAVEA
notes: coexpressed alpha and gamma-TEV-His6 (pQlinkN), E. coli BL21(DE3) Codon-Plus, His6 tag cleaved with TEV; 1:1 heterodimer, mutant is heterotetramer (αMγ)2 of 131-149 kDa
On to B2, for which, in series [2], the K0.5 was found to be 0.26 ± 0.11 mM and the Vmax was 25.5 µmol/min/mg.
